Results taken from US20230242654A1, “REAGENTS FOR EXPANDING CELLS EXPRESSING RECOMBINANT RECEPTORS” (Juno Therapeutics, Inc., priority 2017, published 2023).

Key:
Format in all cases: cell-based, human
[1] = tested on: CD4+ or CD8+ CAR-expressing T cells; assay: Expansion after serial restimulation, 4 rounds in 14 days
Protocol: The ability of cells to expand ex vivo following repeated stimulations may be a potential surrogate for capacity of CAR+ T cells to persist (e.g. following initial activation) and/or is indicative of function in vivo (Zhao et al. (2015) Cancer Cell, 28:415-28). CAR+ T cells were generated as described above and thawed CD4+ or CD8+ CAR-expressing T cells were plated separately at 50,000 CAR+ cells/well. Anti-ID B-1 conjugated beads were added to cells at a 1:1 or 1:5 cell:bead ratio in the presence or absence of cytokines as described in Example 10. As a control, anti-CD3/anti-CD28 magnetic beads were added to cells at a 3:1 cell:bead ratio in the presence or absence of the cytokines. Cells were harvested every 3-4 days and counted, and restimulated with new […] using the same culture conditions after resetting cell number to initial seeding density for each round. A total of 4 rounds of stimulation during a 14 day culture period were carried out. For each round of stimulation, the number of doublings was determined.

[2] = tested on: anti-CD19 CAR-T cell compositions; assay: Long-term (15 day) stimulation with anti-ID conjugated beads of CAR-T compositions made with compounds; details: 1:1 bead:cell, 15 days, counted every 5 days
Protocol: Engineered T cell compositions containing T cells that express an anti-CD19 CAR were generated from three separate donors in the presence of different compounds or a vehicle control.
The ability of the cells from the different T cell compositions to expand following stimulation of the CAR was assessed by incubating cells of the generated anti-CD19 CAR-T cell compositions with beads surface conjugated with an anti-idiotype antibody specific to the anti-CD19 CAR. The anti-ID conjugated beads were incubated with cells at a 1:1 bead:cell ratio in wells of 24-well G-rex expansion vessels (Argos Technologies) for 15 days. The total live T cells per well was determined by counting cells in the cultures every 5 days (FIG. 25A). The mean area under the curve (AUC) of the function of T cell number over time was calculated relative to the AUC of cells expanded with media only (FIG. 25B).
Secondary cytokine response after stimulation with antigen-expressing cells was assessed on CAR-T cells from the T cell compositions harvested at day 11 following expansion with anti-ID conjugated beads. The anti-ID stimulated cells were incubated with irradiated K562-CD19 target cells at an effector:target ratio of 1:1 for approximately 16 hours. Supernatant was collected and TNF-alpha, IFN-gamma, and IL-2 cytokine production were measured using a Luminex Multiplex Assay. […]

[3] = tested on: T cells transduced with anti-CD19 CAR having an scFv derived from FMC63; assay: CAR-specific cell expansion with anti-ID B-1 conjugated beads, 9 days, two patient donors
Protocol: Similar studies as those described in Examples 11 and 12 were performed, except using CAR-expressing T cells generated from two different patient donors. CD3-purified T cells were isolated from peripheral blood mononuclear cells (PBMCs) of two donor patients, transduced with a viral vector encoding an anti-CD19 CAR having an scFv derived from FMC63, expanded in culture, frozen, and thawed.
Thawed CD4+, CD8+ or co-cultures of CD4/CD8 (1:1 ratio) were seeded in wells of a 6-well plate at approximately 5×10^6 total cells/well in culture media that was additionally supplemented with cytokines as follows: for CD4+ cells or CD4+/CD8+ co-cultures media was supplemented with approximately 1200 IU/mL recombinant IL-7, 20 IU/mL recombinant IL-15 and 100 IU/mL recombinant IL-2; for CD8+ cells media was supplemented with 200 IU/mL recombinant IL-2 and 20 IU/mL recombinant IL-15. Anti-ID B-1 conjugated beads were added to cells at a 1:1 cell:bead ratio and incubated up to 9 days with a 50% media exchange every 2-3 days.
At various times of culture, the number of CD4+ or CD8+ transduced cells (as detected by anti-EGFR for expression of the EGFRt surrogate marker) present in the culture for each condition was assessed and fold expansion or frequency of the CAR-expressing cells as a percent of total cells was determined. Expression of PD-1 and CD25 and cell viability also was determined.

[4] = tested on: T cells transduced with anti-CD19 CAR having an scFv derived from FMC63; assay: Cytokine levels and phenotype at thaw versus after 9 days with anti-ID B-1 conjugated beads; details: 9 days with beads versus immediately after thaw
Text: CD3-purified T cells were isolated from peripheral blood mononuclear cells (PBMCs) of two donor patients, transduced with a viral vector encoding an anti-CD19 CAR having an scFv derived from FMC63 and expanded in culture with anti-CD3 and anti-CD28 antibody coated beads. After expansion, the expanded T cells were frozen by cryopreservation. For the studies, frozen T cells were thawed and CD4+ and CD8+ T cells assessed for intracellular cytokine levels or surface phenotype (d=0) or thawed CD4+, CD8+, or CD4+/CD8+ co-culture T cells were cultured for an additional 9 days in the presence of anti-ID B-1 conjugated beads prior to assessing intracellular cytokine levels and surface marker phenotype following stimulation by PMA/ionomycin or CD19 transduced K562 cells (d=9).
For assessment of intracellular cytokine levels, Golgi inhibitor was added for 4 hours and then TNFα, IFNγ, and IL-2 was assessed by flow cytometry. For all conditions, the extent of intracellular cytokine expression was substantially greater when cells were stimulated in with PMA/ionomycin as compared to CAR-specific stimulation with CD19 transduced K562 cells. […] Similar results were obtained in cells from the two donors.
Surface expression of the activation marker CD25, surface expression of inhibitory receptors PD-1 and LAG-3, and nuclear expression of the proliferation marker Ki-67 were also assessed in CD4+ or CD8+ cells immediately after thaw (d=0) or in CD4+ or CD8+ T cells expanded alone or as a CD4/CD8 co-culture for an additional 9 days in the presence of the anti-ID conjugated beads (d=9).

B1: anti-ID conjugated beads: FMC63-derived scFv-specific anti-idiotype antibody (B-1 in Examples 10-14) covalently coupled to tosyl-activated magnetic beads (conjugate)
heavy: EVQLQQSGPELVKPGASVKMSCKASGYTFTDYYMKWVKQCHGKSLEWIGDINPNNGGTDYNQNFKGKATLTVDKSSSTAYMQLNSLTSEDSAVYYCAREGNNYGSRDAMDYWGQGTSVTVSSAKTTAPSVYPLAPVCGDTTGSSVTLGCLVKGYFPEPVTLTWNSGSLSSGVHTFPAVLQSDLYTLSSSVTVTSSTWPSQSITCNVAHPASSTKVDKKIEPRGPTIKPCPPCKCPAPNLLGGPSVFIFPPKIKDVLMISLSPIVTCVVVDVSEDDPDVQISWFVNNVEVHTAQTQTHREDYNSTLRVVSALPIQHQDWMSGKEFKCKVNNKDLPAPIERTISKPKGSVRAPQVYVLPPPEEEMTKKQVTLTCMVTDFMPEDIYVEWTNNGKTELNYKNTEPVLDSDGSYFMYSKLRVEKKNWVERNSYSCSVVHEGLHNHHTTKSFSRTPGK
light: QIVLTQSPALMSASPGEKVTMTCSASSGVIYMYWYQQKPRSSPKPWIYLTSNLASGVPARFSGSGSGTSYSLTISSMEAEDAATYYCQQWSSNPLTFGAGTKLELKRADAAPTVSIFPPSSEQLTSGGASVVCFLNNFYPKDINVKWKIDGSERQNGVLNSWTDQDSKDSTYSMSSTLTLTKDEYERHNSYTCEATHKTSTSPIVKSFNRNEC
[1]; 1:1 or 1:5 cell:bead, 4 rounds
  expansion of CAR-expressing (EGFRt+) CD4+ cells after restimulation: continued cell expansion
[1]; versus anti-CD3/anti-CD28 beads
  extent of expansion of CD4+ cells: the extent of expansion was greater
[1]; versus anti-CD3/anti-CD28 beads, particularly without recombinant cytokines
  expansion of CD8+ T cells: expansion was somewhat greater
[2]
  total live T cells per well: initial expansion that was followed by a decline in cell number
[3]; CD4+ cells cultured alone, 1:1 cell:bead, up to 9 days
  expansion of CAR-expressing (EGFRt+) CD4+ T cells: over 60 fold
[3]; CD8+ T cells co-cultured with CD4+ cells
  expansion of CAR-expressing (EGFRt+) CD8+ T cells: substantially higher expansion
[3]; after 9 days
  CD25 expression: also was decreased
[3]; day 9
  frequency of transduced cells (EGFRt+) in the culture: > 90%
[3]; days 5, 7 and 9
  PD-1 expression on CD4+ and CD8+ T cells: decreased substantially over time
[3]; during the 9 day culture
  Viability of CD4+ and CD8+ cells: ~100%
[4]
  expression of CD25 and Ki-67: reduced expression of CD25, but not Ki-67
  expression of PD-1 and LAG-3: decreased expression of PD-1 and LAG-3
  levels of IFNγ: Increased levels of IFNγ
